Measurements taken from patent publication US20200055939A1 (Genentech, published 2020).
Positions count from the first letter of the chain named.

B1: 6F8.7 (antibody, V domains shown)
VH: DVQLQGSGPGLVKPSQSLSLTCSVTGYSITNDYYWNWIRQFPGNKLEWMGFISFGGSNNYNPSLKNRISITRDTSKNQFFLKLSSVTTEDTATYYCARYDGRGAWFAYWAQGTLVTVSA
VL: DIQMTQSPASLSASVGETVTITCRASGNIHNYLAWYQQKQGKSPQLLVYDAITLADGVPSRFSGSGSGTQYSLKINSLQPEDFGNYYCQHFWSFPLTFGAGTKVEIK
notes: Mouse hybridoma antibody; constant regions differ by assay
B2: 7D4.6 (antibody, V domains shown)
VH: DVQLQESGPGLVKPSQSLSLTCTVTGYSITSDYAWNWIRQFPRNKLEWMGYINYSGTTNYNPSLKSRISITRDTSKNQFFLQLISVTTEDTATYYCSYYRYDGAWFPYWGQGTLVTVSA
VL: B1 VL with D50N, T53M, G64A, N85S
notes: as for B1
B3: 32D2 (antibody, V domains shown)
VH: DVHLVESGGGLVQPGGSRKLSCAASGFTFNTFGMNWVRQAPEKGLEWVAYINSGSNTIYYADTVKGRFTISRDNPKNTLFLQMTSLRSEDTAMYYCTRWEPVTGGFSYWGQGTLVTVSA
VL: QIVLTQSPAFKSSSLGERVTMTCTASSSISSSYLHWYQQKPGSSPKLWIYTTSNLASGVPARFSGSGSGTSYSLTISTMEAEDAATYYCHQHHRSPFTFGSGTKVEIK
notes: as for B1
B4: 15F11 (antibody, V domains shown)
VH: EIQLQQSGPELVKPGASVRVSCKPSGYAFTSNNIYWVKQSRRKSLEWIGYIDPYIGRIIYNQQFKDKATLTVDKSSSTAYMHLNSLTSEDSAVYYCSRSGERSNFDYWGQGTTLTVSS
VL: EIVLTQSPTAMAASPGEKITITCSASSSISSNYLHWYQQKPGFSPKLLIYRTSNLASGVPARFSGSGSGTSYSLTIGPMEAEDVATYYCQQGGSLPLTFGAGTKVEIK
notes: Mouse variable domains; constant regions differ by assay
B5: 3E11 (antibody, V domains shown)
VH: EIQLQQSGPELVKPGASVKVSCTASGYAFTKYNIYWVKQSHGKSLEWIGYIDPYTGGTISNQKFTGRATLTVDKSSSTAYLHLNSLTSEDSAVYYCARPGSYWYFGVWGAGTTVTVSS
VL: DILMTQTPLSLPVSLGDQASISCRSSQSIVYTNGNTNLEWYLQKPGQSPKLLIYKVSNRFSGVPDRFSGSGSGTDFTLKISRVEAEDLGVYYCFQASYVPFTFGSGTKVEIK
notes: as for B1

Molecular target: T1, MICA.008.a3.R202-S297.R202N mIgG2a.Glyco11 (human; mouse, UniProt Q29983 203-297, engineered N-linked glycosylation site R202N)
T1 construct: not shown: murine IgG2a Fc
T1 chain: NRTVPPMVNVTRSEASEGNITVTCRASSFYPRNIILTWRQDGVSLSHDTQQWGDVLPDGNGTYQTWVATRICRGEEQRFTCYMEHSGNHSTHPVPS
Test: ELISA, coated variant;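 note: ELISA with plates coated at 2 ug/ml with MICA*008 alpha 3 glycosylation variants as murine IgG2a Fc fusions, antibody binding detected by HRP anti-human IgG Fc and TMB absorbance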

Binder	binding result
B1	binds
B2	binds
B3	binds
B4	binds
B5	binds

Molecular target: T2, MICA.008.a3.T204-S297.E215N.mIgG2a.Glyco12 (human; mouse, UniProt Q29983 204-297, engineered N-linked glycosylation site E215N)
T2 construct: not shown: murine IgG2a Fc
T2 chain: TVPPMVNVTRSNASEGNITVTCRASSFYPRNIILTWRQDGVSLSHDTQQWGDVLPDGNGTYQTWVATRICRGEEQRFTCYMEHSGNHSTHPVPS
Test: ELISA, coated variant;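 note: ELISA with plates coated at 2 ug/ml with MICA*008 alpha 3 glycosylation variants as murine IgG2a Fc fusions, antibody binding detected by HRP anti-human IgG Fc and TMB absorbance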

Binder	binding result
B1	binds
B2	binds
B3	binds
B4	binds
B5	binds

Molecular target: T3, MICA.008.a3.T204-S297.I236T.mIgG2a.Glyco13 (human; mouse, UniProt Q29983 204-297, engineered N-linked glycosylation site created by I236T)
T3 construct: not shown: murine IgG2a Fc
T3 chain: T2 chain with N12E, I33T
Test: ELISA, coated variant;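 note: ELISA with plates coated at 2 ug/ml with MICA*008 alpha 3 glycosylation variants as murine IgG2a Fc fusions, antibody binding detected by HRP anti-human IgG Fc and TMB absorbance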

Binder	binding result
B1	binds
B2	binds
B3	binds
B4	binds
B5	binds

Molecular target: T4, MICA.008.a3.T204-S297.H248N.mIgG2a.Glyco15 (human; mouse, UniProt Q29983 204-297, engineered N-linked glycosylation site H248N)
T4 construct: not shown: murine IgG2a Fc
T4 chain: T2 chain with N12E, H45N
Test: ELISA, coated variant;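 note: ELISA with plates coated at 2 ug/ml with MICA*008 alpha 3 glycosylation variants as murine IgG2a Fc fusions, antibody binding detected by HRP anti-human IgG Fc and TMB absorbance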

Binder	binding result
B1	binds
B2	binds
B3	binds
B4	binds
B5	binds

Molecular target: T5, MICA.008.a3.T204-S297.C-terminal insert of N298.G299.S300.mIgG2a.Glyco17 (human; mouse, UniProt Q29983 204-297, engineered N-linked glycosylation site at inserted N298)
T5 construct: not shown: murine IgG2a Fc
T5 chain: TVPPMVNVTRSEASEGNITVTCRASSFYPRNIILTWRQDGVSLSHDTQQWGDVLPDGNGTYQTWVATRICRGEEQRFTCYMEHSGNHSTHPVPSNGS
Test: ELISA, coated variant

Binder	binding result
B1	binds
B2	binds
B3	binds
B4	binds
B5	binds

Molecular target: T6, MICA008.His (human MICA*008 alpha 3 domain, His tagged) (human)
T6 construct: Also used for FPOP (expressed in CHO); also called huMICA*008 alpha 3-his; MICA*008 a3
T6 chain: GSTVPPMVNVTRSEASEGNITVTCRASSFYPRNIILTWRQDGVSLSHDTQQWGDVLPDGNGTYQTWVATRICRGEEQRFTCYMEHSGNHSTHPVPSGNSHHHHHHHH
Test: SPR, antibody captured;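 note: SPR with antibody held by surface-bound anti-Fc while His-tagged alpha three domains flow over, Kd derived by fitting a one-to-one binding model to sensograms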

Binder	Kd [nM]
B1	8.4
B2	10
B3	1.94
B4	1.02
B5	2.5

Molecular target: T7, MICA002.His (human MICA*002 alpha 3 domain, His tagged) (human)
T7 construct: also called huMICA*002 alpha 3-his
T7 chain: T6 chain with S28G, R32W, I35T, T37S, R73Q
Test: SPR, antibody captured;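 note: SPR with antibody held by surface-bound anti-Fc while His-tagged alpha three domains flow over, Kd derived by fitting a one-to-one binding model to sensograms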

Binder	Kd [nM]
B1	2.4
B2	3.5
B3	3.18
B4	3.05
B5	7.7

Molecular target: T8, MICA004.His (human MICA*004 alpha 3 domain, His tagged) (human)
T8 construct: also called huMICA*004 alpha 3-his
T8 chain: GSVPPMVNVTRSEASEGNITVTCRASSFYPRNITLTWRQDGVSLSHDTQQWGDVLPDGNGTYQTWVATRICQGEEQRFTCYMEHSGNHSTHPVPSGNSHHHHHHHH
Test: SPR, antibody captured;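 note: SPR with antibody held by surface-bound anti-Fc while His-tagged alpha three domains flow over, Kd derived by fitting a one-to-one binding model to sensograms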

Binder	Kd [nM]
B1	6.2
B2	8.9
B3	2.85
B4	1.22
B5	5

Molecular target: T9, MICB005.His (human MICB*005 alpha 3 domain, His tagged) (human)
T9 construct: also called huMICB*005 alpha 3-his
T9 chain: T6 chain with R12C, A15V, I35T, D48N, C72R, R73Q, S90G
Test: SPR, antibody captured;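 note: SPR with antibody held by surface-bound anti-Fc while His-tagged alpha three domains flow over, Kd derived by fitting a one-to-one binding model to sensograms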

Binder	Kd [nM]
B1	14.5
B2	20
B3	2.82
B4	3.28
B5	6.8

Molecular target: T10, MICA*008 on MEL-JUSO cells (human, UniProt Q29983 24-317)
T10 chain: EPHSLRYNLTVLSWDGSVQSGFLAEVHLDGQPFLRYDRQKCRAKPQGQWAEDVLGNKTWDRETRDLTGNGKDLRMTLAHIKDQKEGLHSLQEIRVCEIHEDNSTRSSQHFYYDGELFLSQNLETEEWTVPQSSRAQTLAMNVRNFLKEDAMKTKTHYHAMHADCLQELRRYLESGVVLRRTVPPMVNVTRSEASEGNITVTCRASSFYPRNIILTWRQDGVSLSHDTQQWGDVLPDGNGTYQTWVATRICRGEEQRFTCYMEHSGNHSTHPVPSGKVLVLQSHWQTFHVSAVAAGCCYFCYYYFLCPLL
Test: cell-based or functional assay

Binder	% max inhibition of shedding [%]	EC50 of shedding inhibition [µg/mL]
B1	47.5	0.163
B2	26	
B3	71	0.0303
B4	74	0.0165
B5	70	0.265

Molecular target: T11, MICA*004 on HCC1534 cells (human, UniProt Q29983 24-383)
Test: cell-based or functional assay

Binder	% max inhibition of shedding [%]	EC50 of shedding inhibition [µg/mL]
B1	70	0.251
B2	63	0.185
B3	76	0.0592
B4	86	0.0485
B5	55	0.309

Molecular target: T12, MICB*005 on HCC1534 cells (human, UniProt Q29980 23-383)
T12 sequence (looked up): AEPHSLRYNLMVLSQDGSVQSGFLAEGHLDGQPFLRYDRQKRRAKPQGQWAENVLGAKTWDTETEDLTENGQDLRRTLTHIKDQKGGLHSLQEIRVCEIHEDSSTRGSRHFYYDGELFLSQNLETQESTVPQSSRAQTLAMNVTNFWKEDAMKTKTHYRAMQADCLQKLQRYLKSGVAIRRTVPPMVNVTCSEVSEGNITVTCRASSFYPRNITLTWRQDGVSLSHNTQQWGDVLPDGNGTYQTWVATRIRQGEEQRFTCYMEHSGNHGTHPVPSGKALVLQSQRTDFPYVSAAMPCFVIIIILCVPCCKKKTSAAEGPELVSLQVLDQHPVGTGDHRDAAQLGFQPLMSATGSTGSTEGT
Test: cell-based or functional assay

Binder	% max inhibition of shedding [%]	EC50 of shedding inhibition [µg/mL]
B3	54	0.0781
B4	59	0.0736

Molecular target: T10, MICA*008 on MEL-JUSO cells
Test: cell-based or functional assay
Remark: another data set of the same source

Binder	EC50 of shedding inhibition [µg/mL]	Max % Inhibition of shedding [%]
B4	0.0255	73

Molecular target: T11, MICA*004 on HCC1534 cells
Test: cell-based or functional assay
Remark: another data set of the same source

Binder	EC50 of shedding inhibition [µg/mL]	Max % Inhibition of shedding [%]
B4	0.0375	64

Molecular target: T12, MICB*005 on HCC1534 cells
Test: cell-based or functional assay
Remark: another data set of the same source

Binder	EC50 of shedding inhibition [µg/mL]	Max % Inhibition of shedding [%]
B4	0.102	60

Molecular target: MICA*002 on cells (PANC-1; B16-MICA002) (human, UniProt Q29983 24-383)
Test: cell-based or functional assay

Binder	EC50 of shedding inhibition [µg/mL]	Max % Inhibition of shedding [%]
B4	0.0752	54

Molecular target: T6, MICA008.His (human MICA*008 alpha 3 …)
Test: SPR (Biacore), MICA*008 alpha-3 domain

Binder	Kd [nM]
B3	4
